Test results as given in paper PMC12822440, “An Aptamer‐Based EXACT Anticoagulant as a Sustainable, Animal‐Free Alternative to Unfractionated Heparin”.

B1: HD1 (structured_DNA)
DNA: GGTTGGTGTGGTTGG
B2: HD1-12A-DAB (structured_DNA)
DNA: GGTTGGTGTGGTTGGAAAAAAAAAAAA
modifications: 3'-dabigatran conjugate (DAB) through 12-nt dA linker

What was measured:
[1] = molecular target: T1, thrombin (alpha-thrombin) (UniProt P00734;P00734 315-363;364-622); assay: filter binding; Nitrocellulose filter binding, 32P 5'-labelled aptamer (500 CPM/uL), selection buffer (composition not given), 5 min at room temperature, n = 2
[2] = molecular target: T1, thrombin (alpha-thrombin); assay: filter binding; dabigatran covalently attached to the aptamer, occupies the active site; Nitrocellulose filter binding, 32P 5'-labelled aptamer (500 CPM/uL), selection buffer (composition not given), 5 min at room temperature, n = 2
[3] = molecular target: prothrombin (UniProt P00734 44-622); assay: filter binding; dabigatran covalently attached to the aptamer; Nitrocellulose filter binding, 32P 5'-labelled aptamer (500 CPM/uL), selection buffer (composition not given), 5 min at room temperature, n = 2; conditions: protein: commercial; label: 5'-32P

Row | Binder | Kd [1] | Kd [2] | Kd [3]
1 | B1 | 110 nM | – | –
2 | B2 | – | 0.0131 nM | 296 nM
